In the assay the target is T1, Human Nectin-4 (human, UniProt Q96NY8 32-349, limits assumed).
T1 construct: Protein immobilised on the SPR chip; also called target protein
T1 sequence: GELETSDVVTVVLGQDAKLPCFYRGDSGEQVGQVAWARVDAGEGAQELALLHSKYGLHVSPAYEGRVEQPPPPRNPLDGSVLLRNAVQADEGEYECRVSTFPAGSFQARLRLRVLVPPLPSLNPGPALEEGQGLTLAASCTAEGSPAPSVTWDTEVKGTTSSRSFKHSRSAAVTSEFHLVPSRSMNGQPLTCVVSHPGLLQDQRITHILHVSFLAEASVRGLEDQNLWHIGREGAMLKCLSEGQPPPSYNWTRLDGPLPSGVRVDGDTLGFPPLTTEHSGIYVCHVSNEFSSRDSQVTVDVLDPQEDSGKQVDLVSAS
Description: Table 2B (DELFIA or SPR).

Bridges are numbered along the chain shown (N, C = ends). Primed or numbered codes have the meaning given here. Where no end group is shown, it is not given here. The star is where a group is joined. DOTA = O=C(O)CN1CCN(CC(=O)O)CCN(CC(=O)*)CCN(CC(=O)O)CC1; PEG12′ = not defined here

B1: C22 (designed binder)
chain: Ac-CEYDEEFFAGLKRLRGTDICYYIKKKFDKVPDLCIEEILDKLGC-OH
modifications: disulfide 1-34, 20-44
One may read the Kd as the equilibrium constant for the complex coming apart. Read a high Kd as a looser complex. For B1, the affinity, expressed as Kd, was 12.8 nM.

B2: C23 (designed binder)
chain: Ac-CEYDEEFFAGLHRLRGTDICYYIKKKFDKVPDLCIEEILDKLGC-OH
modifications: disulfide 1-34, 20-44
Consider B2, for which binding was characterised by a dissociation constant (Kd) of 18.5 nM. The Kd values of the last two molecules are within 1.5-fold of each other.

B3: C61 (designed binder)
chain: Ac-CEYDEEFFLGLKRLRGGDICYYIKKKFKKVPKLCIEEILEKLGC-OH
modifications: disulfide 1-34, 20-44
For B3, the affinity, expressed as Kd, was 1.79 nM.

B4: C44 (designed binder)
chain: Ac-CEYDEEFFTGLKRLRGGDICYYIKKKFKKVPDLCIEEILKKLGC-OH
modifications: disulfide 1-34, 20-44
In turn, B4 registered a Kd of 3.14 nM.

B5: C76 (designed binder)
chain: Ac-CEYDEEFFKALKRLRGGDICYYIKKKFKKVPKLCIEEILEKLGC-OH
modifications: disulfide 1-34, 20-44
In turn, B5 yielded a Kd of 0.52 nM.

B6: C69 (designed binder)
chain: Ac-CEYDEEFFKGLKRLRGGDICYYIKKKFKKVPKLCIEEILEKLGC-OH
modifications: disulfide 1-34, 20-44
Consider B6, for which the Kd came out at 1.86 nM.

B7: C31 (designed binder)
chain: Ac-CEYDEEFFTGLKRLRGGDICYYIKKKFKKVPKLCIEEILDKLGC-OH
modifications: disulfide 1-34, 20-44
Regarding B7, binding was characterised by a dissociation constant (Kd) of 1.31 nM. The Kd values of the last two molecules are within 1.5-fold of each other.

B8: C24 (designed binder)
chain: Ac-CEYDEEFFAGLHRLRGTDICYYIKKKFPKVPDLCIEEILDKLGC-OH
modifications: disulfide 1-34, 20-44
B8 registered a dissociation constant (Kd) of 84.4 nM.

B9: C56 (designed binder)
chain: Ac-CEYDEEFFTLLKRLRGGDICYYIKKKFKKVPKLCIEEILDKLGC
modifications: disulfide 1-34, 20-44
For B9, the Kd stood at 3.88 nM.

B10: C64 (designed binder)
chain: Ac-CEYDEEFFLGLKRLRGGDICYYIKKKFKKVPDLCIEEILKKLGC-OH
modifications: disulfide 1-34, 20-44
B10 registered an equilibrium dissociation constant (Kd) of 3.8 nM.

B11: C68 (designed binder)
chain: Ac-CEYDEEFFLGLKRLRGGDICYYIKKKFKKVPELCIEEILEKLGC-OH
modifications: disulfide 1-34, 20-44
For B11, the dissociation constant Kd amounted to 2.66 nM.

B12: C33 (designed binder)
chain: Ac-CEYDEEFFQGLKRLRGGDICYYIKKKFKKVPDLCIEEILDKLGC-OH
modifications: disulfide 1-34, 20-44
B12 had a Kd of 3.47 nM.

B13: C28 (designed binder)
chain: Ac-CEYDEEFFSGLKRLRGGDICYYIKKKFKKVPDLCIEEILDKLGC-OH
modifications: disulfide 1-34, 20-44
As for B13, the affinity, expressed as Kd, was 5.29 nM.

B14: C45 (designed binder)
chain: Ac-CEYDEEFFTGLKRLRGGDICYYIKKKFKKVPDLCIEEILEKLGC-OH
modifications: disulfide 1-34, 20-44
In turn, B14 yielded a Kd of 3.29 nM.

B15: C26 (designed binder)
chain: Ac-CEYDEEFFEGLKRLRGGDICYYIKKKFKKVPDLCIEEILDKLGC-OH
modifications: disulfide 1-34, 20-44
Regarding B15, the Kd was 5.04 nM.

B16: C80 (designed binder)
chain: Ac-CEYDEEFFKGLKRLRGGDICYYIKKKFKKVPKLCIEEILDKLGC-OH
modifications: disulfide 1-34, 20-44
B16 registered an equilibrium dissociation constant (Kd) of 2.7 nM. This Kd is about 1.9-fold lower than that of the molecule before.

B17: C71 (designed binder)
chain: Ac-CEYDEQFFTGLKRLRGGDICYYIKKKFKKVPKLCIEEILDKLGC-OH
modifications: disulfide 1-34, 20-44
B17 registered a Kd of 2.85 nM. The Kd values of the last two molecules are within 1.5-fold of each other.

B18: C79 (designed binder)
chain: Ac-CEYDEEFFTALKRLRGGDICYYIKKKFKKVPKLCIEEILEKLGC-OH
modifications: disulfide 1-34, 20-44
Take B18: binding was characterised by a dissociation constant (Kd) of 0.38 nM. Compared with the last molecule, the Kd is about 7.5-fold lower.

B19: C57 (designed binder)
chain: Ac-CEYDEEFFTALKRLRGGDICYYIKKKFKKVPKLCIEEILDKLGC-OH
modifications: disulfide 1-34, 20-44
B19 gave a Kd of 0.29 nM.

B20: C30 (designed binder)
chain: Ac-CEYDEEFFEGLKKLRGGDICYYIKKKFKKVPDLCIEEILDKLGC-OH
modifications: disulfide 1-34, 20-44
Consider B20, for which the Kd came to 24.9 nM.

B21: C81 (designed binder)
chain: Ac-CEYDEEFFKALKRLRGGDICYYIKKKFKKVPKLCIEEILDKLGC-OH
modifications: disulfide 1-34, 20-44
Molecule B21 gave a Kd of 0.43 nM.

B22: C46 (designed binder)
chain: Ac-CEYDEKFFTGLKRLRGGDICYYIKKKFKKVPDLCIEEILDKLGC-OH
modifications: disulfide 1-34, 20-44
B22 had an equilibrium dissociation constant (Kd) of 2.28 nM.

B23: C63 (designed binder)
chain: Ac-CEYDEEFFLGLKRLRGGDICYYIKKKFKKVPKLCIEEILKKLGC-OH
modifications: disulfide 1-34, 20-44
As for B23, the Kd is 1.97 nM. The Kd values of the last two molecules are within 1.5-fold of each other.

B24: C77 (designed binder)
chain: Ac-CEYDEEFFLALKRLRGGDICYYIKKKFKKVPKLCIEEILEKLGC-OH
modifications: disulfide 1-34, 20-44
Consider B24, for which binding was put at a Kd of 0.58 nM.

B25: C65 (designed binder)
chain: Ac-CEYDEEFFTGLKRLRGGDICYYIKKKFKKVPELCIEEILKKLGC-OH
modifications: disulfide 1-34, 20-44
B25 gave a dissociation constant (Kd) of 2.21 nM.

B26: C55 (designed binder)
chain: Ac-CEYDEEFFTTLKRLRGGDICYYIKKKFKKVPKLCIEEILDKLGC-OH
modifications: disulfide 1-34, 20-44
B26 yielded a Kd of 3.39 nM. This Kd is about 1.5-fold higher than that of the molecule before.

B27: C49 (designed binder)
chain: Ac-CEYDEQFFTGLKRLRGGDICYYIKKKFKKVPDLCIEEILDKLGC-OH
modifications: disulfide 1-34, 20-44
Consider B27, for which the equilibrium dissociation constant (Kd) stood at 1.93 nM.

B28: C60 (designed binder)
chain: Ac-CEYDEEFFLGLKRLRGGDICYYIKKKFKKVPDLCIEEILEKLGC-OH
modifications: disulfide 1-34, 20-44
With B28, the dissociation constant (Kd) was 3.17 nM.

B29: C29 (designed binder)
chain: Ac-CEYDEEFFTGLKRLRGGDICYYIKKKFKKVPDLCIEEILDKLGC-OH
modifications: disulfide 1-34, 20-44
B29 registered a Kd of 3.91 nM.

B30: C52 (designed binder)
chain: Ac-CEYDEEFFTDLKRLRGGDICYYIKKKFKKVPKLCIEEILDKLGC-OH
modifications: disulfide 1-34, 20-44
Take B30: binding was put at a Kd of 5.24 nM.

B31: C78 (designed binder)
chain: Ac-CEYDEEFFLALKRLRGGDICYYIKKKFKKVPKLCIEEILDKLGC-OH
modifications: disulfide 1-34, 20-44
For the molecule B31, the affinity, expressed as Kd, was 0.49 nM.

B32: C32 (designed binder)
chain: Ac-CEYDEEFFTGLKRLRGGDICYYIKKKFKKVPELCIEEILDKLGC-OH
modifications: disulfide 1-34, 20-44
B32 yielded a Kd of 3.26 nM.

B33: C25 (designed binder)
chain: Ac-CEYDEEFFKGLKRLRGGDICYYIKKKFKKVPDLCIEEILDKLGC-OH
modifications: disulfide 1-34, 20-44
For the molecule B33, the Kd came to 3.75 nM.

B34: C41 (designed binder)
chain: Ac-CEYDEEFFTGLKRLRGGTICYYIKKKFKKVPDLCIEEILDKLGC-OH
modifications: disulfide 1-34, 20-44
With B34, binding was characterised by a dissociation constant (Kd) of 5.6 nM.

B35: C34 (designed binder)
chain: Ac-CEYDEEFFLGLKRLRGGDICYYIKKKFKKVPDLCIEEILDKLGC-OH
modifications: disulfide 1-34, 20-44
Regarding B35, the equilibrium dissociation constant (Kd) came out at 3.17 nM.

B36: C70 (designed binder)
chain: Ac-CEYDEKFFTGLKRLRGGDICYYIKKKFKKVPKLCIEEILDKLGC-OH
modifications: disulfide 1-34, 20-44
B36 yielded a dissociation constant (Kd) of 2.2 nM.

B37: C67 (designed binder)
chain: Ac-CEYDEEFFLGLKRLRGGDICYYIKKKFKKVPELCIEEILKKLGC-OH
modifications: disulfide 1-34, 20-44
B37: the Kd is 2.64 nM.

B38: C27 (designed binder)
chain: Ac-CEYDEEFFDGLKRLRGGDICYYIKKKFKKVPDLCIEEILDKLGC-OH
modifications: disulfide 1-34, 20-44
The molecule B38 returned a Kd of 9.85 nM.

B39: C66 (designed binder)
chain: Ac-CEYDEEFFTGLKRLRGGDICYYIKKKFKKVPELCIEEILEKLGC-OH
modifications: disulfide 1-34, 20-44
B39: binding was characterised by a dissociation constant (Kd) of 2.63 nM. Against the preceding molecule, the Kd is about 3.7-fold lower.

B40: C51 (designed binder)
chain: {DOTA-PEG12′}-CEYDEEFFAGLKRLRGGDICYYIKKKFDKVPDLCIEEILDKLGC-OH
modifications: disulfide 1-34, 20-44
Consider B40, for which the dissociation constant (Kd) was found to be 8.37 nM.

B41: C58 (designed binder)
chain: Ac-CEYDEEFFLGLKRLRGGDICYYIKKKFKKVPKLCIEEILDKLGC-OH
modifications: disulfide 1-34, 20-44
In turn, B41 returned a Kd of 1.81 nM.

Source of the values: patent publication US20260151519A1 (AKTIS ONCOLOGY, published 2026).
